Reference: US20030224521, “Enhanced homologous recombination mediated by lambda recombination proteins” (The Gov. of the USA Secretary of the Department of Health …, published 2003)

Molecular target: T1, lambda Beta (Bet) (Bacteriophage lambda, UniProt P03698 P03698:1-261)
T1 sequence: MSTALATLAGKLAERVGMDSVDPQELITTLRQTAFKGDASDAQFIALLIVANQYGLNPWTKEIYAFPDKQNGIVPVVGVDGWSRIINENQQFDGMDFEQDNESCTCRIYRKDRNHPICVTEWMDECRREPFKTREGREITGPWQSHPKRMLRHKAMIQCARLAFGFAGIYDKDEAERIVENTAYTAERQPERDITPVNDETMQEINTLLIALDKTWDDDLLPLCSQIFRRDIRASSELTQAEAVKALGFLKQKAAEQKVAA
Test: cell_activity; HME9, Exo and Gam co-expressed
Settings: tags: expressed from pL of defective prophage in E. coli
Experimental: Using the methods described in Examples 2, 3, 5, 10 and 11, lambda operon expression was heat-induced, cells were rendered electroporation-competent, and ssDNA oligonucleotides (200 ng each) were electroporated into E. coli HME9 strain cells. The electroporated ssDNA oligonucleotides included the 70-mer of SEQ ID NO: 11, a 60-mer constructed by removing the last 5 nucleotides from both the 5′ and 3′ ends of SEQ ID NO: 11, and a 50-mer, 40-mer, 30-mer, or 20-mer constructed by removing the last 10, 15, 20, or 25 nucleotides, respectively, from both the 5′ and 3′ ends of SEQ ID NO: 11. As in example 10, the ssDNA oligonucleotides used in this experiment were all designed to restore the galK+ gene upon successful recombination, thereby conferring upon the cell a Gal+ phenotype. Table 7 indicates the number of galK+ recombinants per viable cell, […].

B1: galK 60-mer oligo (ssDNA)
DNA: GCGGTCGGAACCGTATTGCAGCAGCTTTATCATCTGCCGCTGGACGGCGCACAAATCGCG
activity: 0.0006 recombinants per viable cell

CGGAACCGTATTGCAGCAGCTTTATCATCTGCCGCTGGACGGCGCACAAA (ssDNA) [galK 50-mer oligo]
activity: 0.0004 recombinants per viable cell

CCGTATTGCAGCAGCTTTATCATCTGCCGCTGGACGGCGC (ssDNA) [galK 40-mer oligo]
activity: 0.0004 recombinants per viable cell

TTGCAGCAGCTTTATCATCTGCCGCTGGAC (ssDNA) [galK 30-mer oligo]
activity: 4.7e-05 recombinants per viable cell

GCAGCTTTATCATCTGCCGC (ssDNA) [galK 20-mer oligo]
activity: 1e-06 recombinants per viable cell
